Measured values from patent US20250101133A1 (CENTRE NATIONAL DE LA RECHERCHE SCIENTIFIQUE, published 2025).

B1: AbR2DP12, purified His6-tagged nanobody (VHH)
VHH: QVQLQESGGGLVQAGGSLRLSCAASGSTSSFNVMAWYHQAPGKQRESVASITSGGITVYRDSVKGRFAISSDNAKNTVFLQMNSLKPEDTGVYYCGGVVDGRVYRGQGTQVTVSS
notes: Llama VHH, recloned into pHEN6 and purified from E. coli periplasm as a His6-tagged protein; also called Nb2; Nanobody 2; not shown: His6 tag from vector pHEN6
B2: AbR2DP46, purified His6-tagged nanobody (VHH)
VHH: QVQLQESGGGLVQAGGSLRLSCAASGSPFSIGTMAWYRQAPGNQRASVAAITRGGATTYANSVKGRFTVSRDNAKNTVYLQMNSLKPEDTAAYYCSVWAGDRAYWGQGTQVTVSS
notes: Llama VHH, recloned into pHEN6 and purified from E. coli periplasm as a His6-tagged protein; also called Nb9; Nanobody 9; not shown: His6 tag from vector pHEN6
B3: AbR2DP47, purified His6-tagged nanobody (VHH)
VHH: QVQLQESGGGLVEPGGSLRLSCAASGSISSINVMAWYRQAPGKQRESVAAISSFGITTYSETVKGRFTASRDNAKNTMYLQMNNLKPEDTAVYYCKGPNTDWGQGTQVTVSS
notes: Llama VHH, recloned into pHEN6 and purified from E. coli periplasm as a His6-tagged protein; also called Nb10; Nanobody 10; not shown: His6 tag from vector pHEN6
B4: AbR2DP35, purified His6-tagged nanobody (VHH)
VHH: QVQLQESGGGLVQPGGSLTLSCAASGVMFSTGVMGWYRQAPGKQREAVAAITSGGLTTYKDSVKGRFAISRDNTKSTGYLQMNRLRPEDTAVYYCNVRGYWGQGTQVTVSS
notes: Llama VHH, purified as a His6-tagged protein; also called Nb7; Nanobody 7; not shown: His6 tag from vector pHEN6
B5: Nb2-Flag (AbR2DP12 with Flag tag, stably expressed in U2OS cells) (VHH)
VHH: QVQLQESGGGLVQAGGSLRLSCAASGSTSSFNVMAWYHQAPGKQRESVASITSGGITVYRDSVKGRFAISSDNAKNTVFLQMNSLKPEDTGVYYCGGVVDGRVYRGQGTQVTVSS
notes: Expressed inside U2OS cells from a pcDNA3 construct; also called Nanobody 2-Flag; AbR2DP12-Flag; not shown: Flag tag
B6: Nb9-Flag (AbR2DP46 with Flag tag, stably expressed in U2OS cells) (VHH)
VHH: QVQLQESGGGLVQAGGSLRLSCAASGSPFSIGTMAWYRQAPGNQRASVAAITRGGATTYANSVKGRFTVSRDNAKNTVYLQMNSLKPEDTAAYYCSVWAGDRAYWGQGTQVTVSS
notes: Expressed inside U2OS cells from a pcDNA3 construct; also called Nanobody 9-Flag; AbR2DP46-Flag; not shown: Flag tag

How the values were obtained:
[1] = target: T1, recombinant human NEDP1 protein (human, UniProt Q96LD8 1-212); assay: SPR and ELISA
T1 construct: also called deNEDDylating enzyme NEDP1; NEDP1 enzyme
T1 sequence (looked up): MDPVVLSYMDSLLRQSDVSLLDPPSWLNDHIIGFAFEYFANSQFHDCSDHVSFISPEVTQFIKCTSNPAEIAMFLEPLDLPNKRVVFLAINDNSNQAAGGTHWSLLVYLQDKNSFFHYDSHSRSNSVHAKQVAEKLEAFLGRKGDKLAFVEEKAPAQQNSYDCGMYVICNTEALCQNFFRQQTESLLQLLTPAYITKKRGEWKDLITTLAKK
Method: (§1) FIGS. 1A-1C: FIG. 1A Table showing the different Nanobodies isolated and their binding specificity towards the immunogen human NEDP1 and ULP-3, the C. elegans homologue of NEDP1 (−poor/no binding, + indicates binding affinity/specificity). FIG. 1B ELISA test, showing the binding of indicated Nanobodies (300 ng) against increasing amounts of coated recombinant human NEDP1. FIG. 1C Table showing the SPR (Surface Plasmon Resonance) analysis and binding affinities for indicated Nanobodies against human NEDP1.
(§2) Nbs affinities for NEDP1 were determined on a Biacore 2000 apparatus (Biacore AB, Uppsala, Sweden). Nanobodies (355 nM) were immobilized on anti-His6 antibody covalently immobilized on a carboxymethyl dextran sensorchip (CM5 Biacore AB) using the amine coupling method according to the manufacturer's instructions. The immobilization level was 500 resonance units (RU). Different concentrations of NEDP1 ranging from 0.75 to 200 nM in HEPES-buffered saline (0.01 M HEPES, pH 7.4, 0.15 M NaCl, 3 mM EDTA, 0.005% surfactant P20) were injected and exposed to the Nb. All sensorgrams were fitted by subtracting the signal from the reference flow cell and were treated using BIA evaluation version 3.2 software (Biacore AB).

[2] = target: T1, recombinant human NEDP1 protein; assay: SPR
Method: as §1, §2

[3] = target: T2, endogenous NEDP1 in U2OS cell extracts (human, UniProt Q96LD8 1-212); assay: anti-Flag immunoprecipitation from U2OS cell extracts, western blot with anti-NEDP1
T2 construct: Untagged native protein, co-immunoprecipitated from cell lysate
T2 sequence (looked up): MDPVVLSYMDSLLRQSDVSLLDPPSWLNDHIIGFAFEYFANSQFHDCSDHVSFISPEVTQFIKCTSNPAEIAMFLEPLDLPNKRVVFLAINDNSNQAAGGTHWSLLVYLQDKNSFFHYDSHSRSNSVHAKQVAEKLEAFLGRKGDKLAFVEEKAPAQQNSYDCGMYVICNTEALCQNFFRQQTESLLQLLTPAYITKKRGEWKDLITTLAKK
Method: FIGS. 4A-4B: FIG. 4A Extracts from empty pcDNA3 vector (vect.) or stably expressing Nanobody 2/Nanobody 9-Flag (AbR2DP12/AbR2DP46) U2OS cells were used for anti-Flag immunoprecipitations. Total cell extracts (input) and eluates were used for western blot analysis with the indicated antibodies. FIG. 4B U2OS cells described above were lysed in 2×SDS buffer and extracts were analysed by western blotting with the indicated antibodies.
U2OS cells either with empty pcDNA3 vector or stably expressing Nb2/Nb9-Flag constructs were lysed in 50 mM Tris-HCl, pH 7.4, 100 mM KCl, 1% NP-40, 2 mM EDTA, protease inhibitors (complete EDTA-free, Roche) for 15 min on ice. After centrifugation at 13000 rpm for 15 min at 4° C. extracts were used for immunoprecipitations overnight at 4° C. with 20 μl of pre-washed Flag beads. Next day beads were washed 3× with 500 μl of lysis buffer, resuspended in 50 μl of 2×SDS Laemmli buffer and boiled for 5 min. Eluates were analysed by western blotting.

| Binder | binding result [1] | binding result [3] | further results |
| --- | --- | --- | --- |
| B1 | binds |  |  |
| B2 | binds |  |  |
| B3 | binds |  |  |
| B4 |  |  | binding result [2]: binds |
| B5 |  | binds |  |
| B6 |  | binds |  |
